tested on: Escherichia coli TOP10; experiment: shrunken log2 fold change of peptide-encoding DNA abundance (4.5 h post-induction vs induction); higher = less antimicrobial activity (less host growth inhibition); conditions: time post-induction: 4.5 h; library: site-saturation at positions 5, 18, 19, 20
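Note: peptides expressed intracellularly from a pBAD plasmid library in pooled LB shake-flask culture, induced with 0.3% L-arabinose, DNA abundance read by NGS, three biological replicates, DESeq2 with apeglm shrinkage.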

Row | Sequence | shrunken log2 fold change
1 | RRIRKRPPRLPRPRPRPDCFPRP | 0.315
2 | RRIRCRPPRLPRPRPRPLTYPRP | -0.19
3 | RRIRFRPPRLPRPRPRPQFKPRP | -0.217
4 | RRIRCRPPRLPRPRPRPIGDPRP | -0.0014
5 | RRIRQRPPRLPRPRPRPHISPRP | -0.312
6 | RRIRDRPPRLPRPRPRPWFCPRP | -0.272
7 | RRIRKRPPRLPRPRPRPDIPPRP | -0.109
8 | RRIRSRPPRLPRPRPRPTAYPRP | -0.00955
9 | RRIRERPPRLPRPRPRPPDGPRP | 0.0068
10 | RRIRWRPPRLPRPRPRPLINPRP | -0.229
11 | RRIRQRPPRLPRPRPRPVWCPRP | 0.0608
12 | RRIRCRPPRLPRPRPRPESLPRP | -0.11
13 | RRIRFRPPRLPRPRPRPPFQPRP | 0.258
14 | RRIRDRPPRLPRPRPRPSFLPRP | -0.197
15 | RRIRCRPPRLPRPRPRPGMVPRP | 0.0377
16 | RRIRVRPPRLPRPRPRPRIQPRP | -0.196
17 | RRIRQRPPRLPRPRPRPGWNPRP | -0.0526
18 | RRIRHRPPRLPRPRPRPFAVPRP | -1.08
19 | RRIRQRPPRLPRPRPRPVARPRP | 0.0118
20 | RRIRDRPPRLPRPRPRPMYYPRP | -0.535
21 | RRIRWRPPRLPRPRPRPQMGPRP | -0.124
22 | RRIRMRPPRLPRPRPRPYTNPRP | -0.165
23 | RRIRNRPPRLPRPRPRPWDCPRP | -0.118
24 | RRIRNRPPRLPRPRPRPISHPRP | -0.963
25 | RRIRVRPPRLPRPRPRPRHCPRP | -0.383

Row | Sequence | shrunken log2 fold change
26 | RRIRGRPPRLPRPRPRPLECPRP | 0.447
27 | RRIRNRPPRLPRPRPRPMDGPRP | -0.261
28 | RRIRDRPPRLPRPRPRPTAEPRP | 1.4
29 | RRIRFRPPRLPRPRPRPHQRPRP | -0.183
30 | RRIRDRPPRLPRPRPRPQDSPRP | 0.00388
31 | RRIRFRPPRLPRPRPRPHILPRP | -0.345
32 | RRIRQRPPRLPRPRPRPSQFPRP | 0.00374
33 | RRIRHRPPRLPRPRPRPSETPRP | -0.0359
34 | RRIRSRPPRLPRPRPRPYNDPRP | -0.41
35 | RRIRTRPPRLPRPRPRPIDMPRP | 0.00748
36 | RRIRVRPPRLPRPRPRPYCFPRP | -0.736
37 | RRIRWRPPRLPRPRPRPNETPRP | 0.0101
38 | RRIRERPPRLPRPRPRPHIKPRP | -0.932
39 | RRIRCRPPRLPRPRPRPYVVPRP | 0.0333
40 | RRIRWRPPRLPRPRPRPLHLPRP | -0.234
41 | RRIRLRPPRLPRPRPRPQDSPRP | -0.276
42 | RRIRCRPPRLPRPRPRPYDQPRP | -0.16
43 | RRIRERPPRLPRPRPRPVVAPRP | 0.182
44 | RRIRLRPPRLPRPRPRPDCSPRP | 0.0574
45 | RRIRCRPPRLPRPRPRPPRNPRP | 1.05
46 | RRIRNRPPRLPRPRPRPVIKPRP | -0.375
47 | RRIRNRPPRLPRPRPRPRWNPRP | -0.297
48 | RRIRFRPPRLPRPRPRPKSHPRP | -0.506
49 | RRIRLRPPRLPRPRPRPHNHPRP | -0.77
50 | RRIRERPPRLPRPRPRPFYMPRP | -0.167

Row | Sequence | shrunken log2 fold change
51 | RRIRARPPRLPRPRPRPQLYPRP | 0.0997
52 | RRIRNRPPRLPRPRPRPLQCPRP | -0.00595
53 | RRIRPRPPRLPRPRPRPPWWPRP | 0.842
54 | RRIRWRPPRLPRPRPRPISSPRP | -0.0629
55 | RRIRWRPPRLPRPRPRPSVNPRP | -0.0581
56 | RRIRRRPPRLPRPRPRPTTHPRP | 0.306
57 | RRIRPRPPRLPRPRPRPLLAPRP | 1.42
58 | RRIRWRPPRLPRPRPRPDRQPRP | -0.018
59 | RRIRIRPPRLPRPRPRPGAEPRP | 0.0273
60 | RRIRRRPPRLPRPRPRPIEIPRP | 0.0138
61 | RRIRNRPPRLPRPRPRPEHSPRP | 0.0507
62 | RRIRIRPPRLPRPRPRPIWYPRP | -1.64
63 | RRIRYRPPRLPRPRPRPGSEPRP | -0.202
64 | RRIRWRPPRLPRPRPRPSQHPRP | 0.0667
65 | RRIRCRPPRLPRPRPRPKYYPRP | 0.167
66 | RRIRARPPRLPRPRPRPFNVPRP | 0.0338
67 | RRIRLRPPRLPRPRPRPAYAPRP | -0.0747
68 | RRIRQRPPRLPRPRPRPGTEPRP | 0.119
69 | RRIRPRPPRLPRPRPRPFTQPRP | -0.0301
70 | RRIRARPPRLPRPRPRPLVDPRP | 0.498
71 | RRIRHRPPRLPRPRPRPCEIPRP | -0.171
72 | RRIRNRPPRLPRPRPRPRTDPRP | 0.089
73 | RRIRVRPPRLPRPRPRPHFTPRP | -0.253
74 | RRIRWRPPRLPRPRPRPSEIPRP | -0.178
75 | RRIRMRPPRLPRPRPRPDSDPRP | 2.6

Row | Sequence | shrunken log2 fold change
76 | RRIRWRPPRLPRPRPRPVEGPRP | -0.0555
77 | RRIRLRPPRLPRPRPRPFTKPRP | -0.00525
78 | RRIRLRPPRLPRPRPRPKDNPRP | -0.303
79 | RRIRWRPPRLPRPRPRPQEPPRP | 0.316
80 | RRIRERPPRLPRPRPRPDCVPRP | -0.191
81 | RRIRERPPRLPRPRPRPAMMPRP | -0.163
82 | RRIRCRPPRLPRPRPRPDGPPRP | 0.185
83 | RRIRRRPPRLPRPRPRPMNCPRP | -0.0277
84 | RRIRKRPPRLPRPRPRPCYWPRP | 0.0448
85 | RRIRGRPPRLPRPRPRPIFQPRP | 0.407
86 | RRIRVRPPRLPRPRPRPELTPRP | 0.149
87 | RRIRRRPPRLPRPRPRPWRSPRP | 0.181
88 | RRIRVRPPRLPRPRPRPSTHPRP | -0.573
89 | RRIRVRPPRLPRPRPRPERWPRP | 0.615
90 | RRIRDRPPRLPRPRPRPGKDPRP | -0.0503
91 | RRIRTRPPRLPRPRPRPSQHPRP | -0.387
92 | RRIRVRPPRLPRPRPRPIVPPRP | -0.349
93 | RRIRCRPPRLPRPRPRPRACPRP | 0.24
94 | RRIRPRPPRLPRPRPRPAWKPRP | -0.109
95 | RRIRERPPRLPRPRPRPFNSPRP | -0.225
96 | RRIRKRPPRLPRPRPRPFFQPRP | 0.346
97 | RRIRQRPPRLPRPRPRPRMTPRP | 0.388
98 | RRIRRRPPRLPRPRPRPGMRPRP | 0.792
99 | RRIRFRPPRLPRPRPRPEKNPRP | -0.0204
100 | RRIRRRPPRLPRPRPRPLGAPRP | 0.468

Row | Sequence | shrunken log2 fold change
101 | RRIRIRPPRLPRPRPRPGLAPRP | 0.201
102 | RRIRHRPPRLPRPRPRPIFNPRP | -0.447
103 | RRIRQRPPRLPRPRPRPKNRPRP | 0.0773
104 | RRIRIRPPRLPRPRPRPGEIPRP | -0.123
105 | RRIRIRPPRLPRPRPRPFWAPRP | -0.0374
106 | RRIRKRPPRLPRPRPRPITCPRP | 0.0162
107 | RRIRSRPPRLPRPRPRPMLGPRP | 0.106
108 | RRIRSRPPRLPRPRPRPHHMPRP | -1.11
109 | RRIRCRPPRLPRPRPRPWRRPRP | 0.0523
110 | RRIRVRPPRLPRPRPRPTFAPRP | 0.294
111 | RRIRHRPPRLPRPRPRPKNEPRP | -0.476
112 | RRIRARPPRLPRPRPRPWPDPRP | 0.17
113 | RRIRCRPPRLPRPRPRPRVQPRP | 0.241
114 | RRIRDRPPRLPRPRPRPGRYPRP | -0.134
115 | RRIRRRPPRLPRPRPRPCIIPRP | -0.474
116 | RRIRYRPPRLPRPRPRPMKNPRP | -0.191
117 | RRIRARPPRLPRPRPRPHSKPRP | -0.154
118 | RRIRARPPRLPRPRPRPHKFPRP | -0.0967
119 | RRIRTRPPRLPRPRPRPHRHPRP | -0.211
120 | RRIRLRPPRLPRPRPRPESTPRP | 0.0274
121 | RRIRCRPPRLPRPRPRPIRSPRP | -0.389
122 | RRIRNRPPRLPRPRPRPTYDPRP | -0.396
123 | RRIRARPPRLPRPRPRPYCCPRP | -0.181
124 | RRIRCRPPRLPRPRPRPANGPRP | -0.0497
125 | RRIRARPPRLPRPRPRPHEEPRP | 0.793

Row | Sequence | shrunken log2 fold change
126 | RRIRCRPPRLPRPRPRPQANPRP | 0.0603
127 | RRIRARPPRLPRPRPRPCVWPRP | 0.544
128 | RRIRWRPPRLPRPRPRPNHFPRP | -0.429
129 | RRIRNRPPRLPRPRPRPYFMPRP | -1.09
130 | RRIRFRPPRLPRPRPRPATAPRP | 0.106
131 | RRIRFRPPRLPRPRPRPPIKPRP | 0.0125
132 | RRIRCRPPRLPRPRPRPTWHPRP | 0.00453
133 | RRIRTRPPRLPRPRPRPYLEPRP | -0.573
134 | RRIRIRPPRLPRPRPRPMCRPRP | -0.236
135 | RRIRTRPPRLPRPRPRPRNQPRP | -0.139
136 | RRIRYRPPRLPRPRPRPNPRPRP | -0.123
137 | RRIRSRPPRLPRPRPRPSQFPRP | -0.345
138 | RRIRWRPPRLPRPRPRPCFMPRP | -0.0873
139 | RRIRQRPPRLPRPRPRPMMEPRP | 0.00908
140 | RRIRQRPPRLPRPRPRPHRRPRP | -0.185
141 | RRIRQRPPRLPRPRPRPQNDPRP | 0.119
142 | RRIRVRPPRLPRPRPRPDFHPRP | -0.208
143 | RRIRVRPPRLPRPRPRPICCPRP | -0.0831
144 | RRIRSRPPRLPRPRPRPSKSPRP | -0.361
145 | RRIRIRPPRLPRPRPRPIAWPRP | 0.0253
146 | RRIRDRPPRLPRPRPRPKNRPRP | 0.0678
147 | RRIRARPPRLPRPRPRPESYPRP | 1.13
148 | RRIRRRPPRLPRPRPRPWDNPRP | 0.0234
149 | RRIRRRPPRLPRPRPRPKALPRP | 0.237
150 | RRIRPRPPRLPRPRPRPDEHPRP | -0.205

From the supplement of paper PMC9112550, “Optimization of the antimicrobial peptide Bac7 by deep mutational scanning” (BMC Biology, 2022)
